The record followed here is article PMC8359077, “DNA aptamer against EV-A71 VP1 protein: selection and application”.

The target of data set [1] is T1, EV-A71 VP1 (capsid protein) (Enterovirus A71) (UniProt Q66478).
T1 sequence: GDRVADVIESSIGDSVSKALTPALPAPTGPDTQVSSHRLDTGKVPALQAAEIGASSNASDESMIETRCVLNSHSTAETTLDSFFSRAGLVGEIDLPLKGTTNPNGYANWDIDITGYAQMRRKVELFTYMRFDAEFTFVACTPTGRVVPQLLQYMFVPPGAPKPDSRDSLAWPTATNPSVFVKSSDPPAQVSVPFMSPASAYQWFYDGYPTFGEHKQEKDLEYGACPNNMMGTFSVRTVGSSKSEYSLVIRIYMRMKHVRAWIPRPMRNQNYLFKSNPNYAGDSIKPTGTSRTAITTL
As to the kind of experiment: ELISA. The conditions noted are these: 5 mM Mg2+; VP1 coated at 200 ng/mL; unit given as nm; given with U (uracil) mixed with t in a DNA aptamer; U may stand for T; 1x PBS, 5 mM MgCl2, 1% BSA, 1 ug/mL tRNA, 0.02% Tween-20, room temperature, 1 h; pH not stated.

In a further data set the target is Bovine serum albumin (Bos taurus (Bovine), UniProt P02769 25-607). In words: ELONA; PBS, 5 mM MgCl2, 1% BSA, 1 ug/mL tRNA, 0.02% Tween-20, RT; VP1 coated on plate. The conditions noted are these: label: 5'-biotin.
Bovine serum albumin, sequence (P02769 25-607): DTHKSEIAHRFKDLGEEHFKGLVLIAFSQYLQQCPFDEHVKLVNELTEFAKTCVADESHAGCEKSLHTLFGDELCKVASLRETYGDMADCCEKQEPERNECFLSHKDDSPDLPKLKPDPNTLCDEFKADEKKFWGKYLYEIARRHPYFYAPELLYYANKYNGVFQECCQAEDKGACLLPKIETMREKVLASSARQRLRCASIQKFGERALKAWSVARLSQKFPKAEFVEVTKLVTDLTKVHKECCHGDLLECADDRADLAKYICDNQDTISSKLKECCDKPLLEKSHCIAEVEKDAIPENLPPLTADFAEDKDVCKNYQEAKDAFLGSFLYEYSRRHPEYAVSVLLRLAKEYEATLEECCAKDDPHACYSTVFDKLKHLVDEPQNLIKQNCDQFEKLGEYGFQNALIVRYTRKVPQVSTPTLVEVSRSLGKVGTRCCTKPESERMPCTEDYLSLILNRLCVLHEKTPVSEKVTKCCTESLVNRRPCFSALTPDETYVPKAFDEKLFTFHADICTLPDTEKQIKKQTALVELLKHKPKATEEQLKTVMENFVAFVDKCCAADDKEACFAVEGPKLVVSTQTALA

Take “ACTAAGCCACCGTGTCCACCCUCGCCGAGUUUUCGUAACUAUAUCUUGUGGUUCCUAUUGCUGCGUCACUCUGGAU [V11]”: the Kd in data set [1] is 4.28 nM.

In turn, “ACTAAGCCACCGTGTCCAUCAAUGGUGUGUGCAUUCGUGUGUUGUGUUGUUUGUUGUUUGCUGCGUCACUCUGGAU [V7]” came in with a Kd in data set [1] of 32.7 nM.

For the molecule “ACTAAGCCACCGTGTCCAUUCGAUUCGAUCUAAUUUGGUUCUUUCCUCACUUUUCAGUGCUGCGUCACUCUGGAU [V21]”, the Kd in data set [1] amounted to 4.55 nM.

B1: V11 (ssDNA)
DNA: ACTAAGCCACCGTGTCCACCCTCGCCGAGTTTTCGTAACTATATCTTGTGGTTCCTATTGCTGCGTCACTCTGGAT
modifications: dU at positions 22,30,31,32,33,36,40,42,44,46,47,49,52,53,56,58,59,62,66,70,72,76 (printed 'U, uracil'; every T 3' of the 18-nt primer; whether the dU carries a C5 group is not stated)
In the case of B1, in the data set with Bovine serum albumin, the binding result was “no binding”.
